{
  "source": "patent US20070244040",
  "proteins": {"B1": {"name": "caspase 9 (protein)", "chain": "MDEADRRLLRRCRLRLVEELQVDQLWDALLSRELFRPHMIEDIQRAGSGSRRDQARQLIIDLETRGSQALPLFISCLEDTGQDMLASFLRTNRQAAKLSKPTLENLTPVVLRPEIRKPEVLRPETPRPVDIGSGGFGDVGALESLRGNADLAYILSMEPCGHCLIINNVNFCRESGLRTRTGSNIDCEKLRRRFSSLHFMVEVKGDLTAKKMVLALLELAQQDHGALDCCVVVILSHGCQASHLQFPGAVYGTDGCPVSVEKIVNIFNGTSCPSLGGKPKLFFIQACGGEQKDHGFEVASTSPEDESPGSNPEPDATPFQEGLRTFDQLDAISSLPTPSDIFVSYSTFPGFVSWRDPKSGSWYVETLDDIFEQWAHSEDLQSLLLRVANAVSVKGIYKQMPGCFNFLRKKLFFKTS"}, "B2": {"name": "caspase 7 (protein)", "chain": "AKPDRSSFVPSLFSKKKKNVTMRSIKTTRDRVPTYQYNMNFEKLGKCIIINNKNFDKVTGMGVRNGTDKDAEALFKCFRSLGFDVIVYNDCSCAKMQDLLKKASEEDHTNAACFACILLSHGEENVIYGKDGVTPIKDLTAHFRGDRCKTLLEKPKLFFIQACRGTELDDGIQADSGPINDTDANPRYKIPVEADFLFAYSTVPGYYSWRSPGRGSWFVQALCSILEEHGKDLEIMQILTRVNDRVARHFESQSDDPHFHEKKQIPCVVSMLTKELYFSQ"}, "B3": {"name": "caspase 6 (protein)", "chain": "AFYKREMFDPAEKYKMDHRRRGIALIFNHERFFWHLTLPERRGTCADRDNLTRRFSDLGFEVKCFNDLKAEELLLKIHEVSTVSHADADCFVCVFLSHGEGNHIYAYDAKIEIQTLTGLFKGDKCHSLVGKPKIFIIQACRGNQHDVPVIPLDVVDNQTEKLDTNITEVDAASVYTLPAGADFLMCYSVAEGYYSHRETVNGSWYIQDLCEMLGKYGSSLEFTELLTLVNRKVSQRRVDFCKDPSAIGKKQVPCFASMLTKKLHFFPKSN"}, "B4": {"name": "caspase 8 (protein)", "chain": "SESQTLDKVYQMKSKPRGYCLIINNHNFAKAREKVPKLHSIRDRNGTHLDAGALTTTFEELHFEIKPHDDCTVEQIYEILKIYQLMDHSNMDCFICCILSHGDKGIIYGTDGQEAPIYELTSQFTGLKCPSLAGKPKVFFIQACQGDNYQKGIPVETDSEEQPYLEMDLSSPQTRYIPDEADFLLGMATVNNCVSYRNPAEGTWYIQSLCQSLRERCPRGDDILTILTEVNYEVSNKDDKKNMGKQMPQPTFTLRKKLVFPSD"}, "B5": {"name": "caspase 3 (protein)", "chain": "SGISLDNSYKMDYPEMGLCIIINNKNFHKSTGMTSRSGTDVDAANLRETFRNLKYEVRNKNDLTREEIVELMRDVSKEDHSKRSSFVCVLLSHGEEGIIFGTNGPVDLKKITNFFRGDRCRSLTGKPKLFIIQACRGTELDCGIETDSGVDDDMACHKIPVEADFLYAYSTAPGYYSWRNSKDGSWFIQSLCAMLKQYADKLEFMHILTRVNRKVATEFESFSFDATFHAKKQIPCIVSMLTKELYFYH"}},
  "data": [
    {"target": "T1, 6×His-Livin α", "T1 chain": "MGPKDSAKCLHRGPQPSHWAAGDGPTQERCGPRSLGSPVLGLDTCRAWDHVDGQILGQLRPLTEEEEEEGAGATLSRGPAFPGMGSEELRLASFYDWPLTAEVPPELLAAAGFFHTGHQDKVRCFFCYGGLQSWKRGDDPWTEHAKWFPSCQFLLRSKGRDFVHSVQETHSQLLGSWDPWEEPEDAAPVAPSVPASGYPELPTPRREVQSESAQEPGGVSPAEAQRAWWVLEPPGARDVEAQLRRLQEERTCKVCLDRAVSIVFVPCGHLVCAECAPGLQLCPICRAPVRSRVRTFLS", "values": [
      {"protein": "B1", "in vitro cleavage, Western blot with anti-Livin antibody": "incubation with high concentrations of caspase 9 resulted in a weak cleavage, suggesting that caspase 9 might cleave Livin with a very low affinity"},
      {"protein": "B2", "in vitro cleavage, Western blot with anti-Livin antibody": "In contrast to the marked efficiency of caspase 7, caspase 6 was not able to cleave Livin at low concentrations (FIG. 4b)"},
      {"protein": "B3", "in vitro cleavage, Western blot with anti-Livin antibody": "caspase 6 was not able to cleave Livin at low concentrations (FIG. 4b)"},
      {"protein": "B4", "in vitro cleavage, Western blot with anti-Livin antibody": "Treatment of recombinant Livin α and β with caspase 8 had no effect even when 90 units of this enzyme were used"}
    ]},
    {"target": "T2, 6×His-Livin β", "T2 chain": "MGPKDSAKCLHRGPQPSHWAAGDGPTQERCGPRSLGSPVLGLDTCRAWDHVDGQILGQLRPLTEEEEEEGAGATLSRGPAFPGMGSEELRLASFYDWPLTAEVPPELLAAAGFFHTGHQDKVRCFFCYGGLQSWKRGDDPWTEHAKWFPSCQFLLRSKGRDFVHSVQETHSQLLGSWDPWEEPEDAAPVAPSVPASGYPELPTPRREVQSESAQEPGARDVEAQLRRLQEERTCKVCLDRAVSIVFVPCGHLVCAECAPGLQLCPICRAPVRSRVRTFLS", "values": [
      {"protein": "B1", "in vitro cleavage, Western blot with anti-Livin antibody": "incubation with high concentrations of caspase 9 resulted in a weak cleavage, suggesting that caspase 9 might cleave Livin with a very low affinity"},
      {"protein": "B5", "in vitro cleavage, Western blot with anti-Livin antibody": "effector caspases 3, 7, and relatively high concentrations of caspase 6, but not the initiator caspases 8 and 9, cleaved Livin β"},
      {"protein": "B2", "in vitro cleavage, Western blot with anti-Livin antibody": "The most efficient cleavage was observed when caspase 7 was used, resulting in the complete cleavage of the recombinant Livin β"},
      {"protein": "B3", "in vitro cleavage, Western blot with anti-Livin antibody": "relatively high concentrations of caspase 6 ... cleaved Livin β"},
      {"protein": "B4", "in vitro cleavage, Western blot with anti-Livin antibody": "Treatment of recombinant Livin α and β with caspase 8 had no effect even when 90 units of this enzyme were used"}
    ]},
    {"target": "T3, Livin α", "T3 chain": "T1 chain", "values": [
      {"protein": "B5", "in vitro cleavage of in vitro translated protein, Western blot": "underwent cleavage similar to the wild-type protein by caspase 3 and 7"},
      {"protein": "B2", "in vitro cleavage of in vitro translated protein, Western blot": "underwent cleavage similar to the wild-type protein by caspase 3 and 7"},
      {"protein": "B3", "in vitro cleavage of in vitro translated protein, Western blot": "it did not cleave any of the Livin isoforms that were translated in eukaryotic in vitro system"}
    ]},
    {"target": "T4, Livin β", "T4 chain": "T2 chain", "values": [
      {"protein": "B5", "in vitro cleavage of in vitro translated protein, Western blot": "underwent cleavage similar to the wild-type protein by caspase 3 and 7"},
      {"protein": "B2", "in vitro cleavage of in vitro translated protein, Western blot": "underwent cleavage similar to the wild-type protein by caspase 3 and 7"},
      {"protein": "B3", "in vitro cleavage of in vitro translated protein, Western blot": "it did not cleave any of the Livin isoforms that were translated in eukaryotic in vitro system"}
    ]}
  ]
}
